Source: patent US11466286B2, “Methods and compositions for conferring and/or enhancing herbicide tolerance using protoporphyrinogen oxidase or variant thereof” (FarmHannong Co., Ltd., priority 2016, dated 2022)
Changes are numbered by the printed parent chain. Names and notes keep the numbering of the source.

B1: AtPPO1 WT: wild type Arabidopsis thaliana PPO1, PPO susceptible (SEQ ID NO: 5) (protein, listed as Arabidopsis thaliana)
chain: MELSLLRPTTQSLLPSFSKPNLRLNVYKPLRLRCSVAGGPTVGSSKIEGGGGTTITTDCVIVGGGISGLCIAQALATKHPDAAPNLIVTEAKDRVGGNIITREENGFLWEEGPNSFQPSDPMLTMVVDSGLKDDLVLGDPTAPRFVLWNGKLRPVPSKLTDLPFFDLMSIGGKIRAGFGALGIRPSPPGREESVEEFVRRNLGDEVFERLIEPFCSGVYAGDPSKLSMKAAFGKVWKLEQNGGSIIGGTFKAIQERKNAPKAERDPRLPKPQGQTVGSFRKGLRMLPEAISARLGSKVKLSWKLSGITKLESGGYNLTYETPDGLVSVQSKSVVMTVPSHVASGLLRPLSESAANALSKLYYPPVAAVSISYPKEAIRTECLIDGELKGFGQLHPRTQGVETLGTIYSSSLFPNRAPPGRILLLNYIGGSTNTGILSKSEGELVEAVDRDLRKMLIKPNSTDPLKLGVRVWPQAIPQFLVGHFDILDTAKSSLTSSGYEGLFLGGNYVAGVALGRCVEGAYETAIEVNNFMSRYAYK
modifications: PEPTIDE (1)..(537) Wild type AtPPO1
B2: AtPPO1 SLYM: mutated A. thaliana PPO1 with amino acid substitutions Y426M and S305L, PPO-inhibiting herbicide tolerant control (protein)
chain: B1 chain with S305L, Y426M
modifications: Synthetic Mutant type AtPPO1
B3: CyPPO13 F373I: CyPPO13 (SEQ ID NO: 4) PPO variant (protein)
chain: MNPATPEPLNAEVVVIGAGISGLTLAWRLQQGLSARGGSPQAVLLAEASSRVGGCISTQSKDGYRWEEGPNSFTPTPALLNLIAEVGLTDQLVLADAKLPRYIYWEGALLPVPLSPAAALGSRLLSVGGKLRALQGLLGFVPPPPGHEETVRQFFRRQLGSEVAERLVEPFTSGVYAGDPDQLSAVAAFPRVAGLEERYGSLFAGALQALRQRPQPSPAAIQPPPKRGQLGNLRQGLQQLPEALAQKLGDSLRLGWRALQLKRAGELYWVGFETPEGSRWVAARQVVLALPAYEAAALLQELNPPASQLLAEILYPPVAVVALAYPQEALPQPLRGFGHLIPRSQGLRTLGTIWASCLFPERAPQGYHSFLSILGGATDAALARRRGIPPIPALSPEERAQIAHAELSQVLLTRRAEPVYLGERLWPRAIPQYTLGHRQRIAQVQAHLASQTPGIWVCANYLDGVALGDCVRRAEALAQQLLSQV
modifications: Synthetic CyPPO13
B4: CyPPO13 A177C: CyPPO13 (SEQ ID NO: 4) PPO variant (protein)
chain: B3 chain with A177C, I373F
modifications: Synthetic CyPPO13
B5: CyPPO13 A177L + F373L: CyPPO13 (SEQ ID NO: 4) PPO variant (protein)
chain: B3 chain with A177L, I373L
modifications: Synthetic CyPPO13
B6: CyPPO13 A177L + F373I: CyPPO13 (SEQ ID NO: 4) PPO variant (protein)
chain: B3 chain with A177L
modifications: Synthetic CyPPO13
B7: CyPPO10 F360L: CyPPO10 (SEQ ID NO: 2) PPO variant (protein)
chain: MIEVDVAIVGGGLSGLSVAWRLQRSAPHYSGVLLEASDRLGGNITTQAAEGFVWELGPNSFAPTPALLQLIAEVGLHSELIRGDRHLPRYIYWRGELYPLEPTRPLALATSNLLSPWGKVRAALGALGFVPPYLGSGDESVDSFFRRHLGQEVAERLVAPFVSGVYAGDPQQLSAAAAFRRIAQLEKLGGSLIAGALRLRRQQPPQPKPPAQVQMRPGELGSFREGLAALPRAIAQQLKAPLHLQTPVEAITPEPKGGYLLRSGEQTWHARSVVLATPAYQTAELVAPFQPAIARALATIPYPTVACVVLAYPAGLGRSVRPGFGVLVPRGQGIRTLGTIWSSCLFPQRTPAGWQVFTSLIGGATDPDLASLREEAIVEQVQQDLTRLLDLPAAKARLLGMKVWRRAIPQYIVGYPQQWQQVTHALTQTPGLFLCSNYAEGVALGDRVEHGNRTAAAVAAYLAGGQS
modifications: Synthetic CyPPO10
B8: CyPPO10 A167C: CyPPO10 (SEQ ID NO: 2) PPO variant (protein)
chain: B7 chain with A167C, L360F
modifications: Synthetic CyPPO10
B9: CyPPO13 F373M: CyPPO13 (SEQ ID NO: 4) PPO variant (protein)
chain: B3 chain with I373M
modifications: Synthetic CyPPO13
B10: CyPPO13 F373C: CyPPO13 (SEQ ID NO: 4) PPO variant (protein)
chain: B3 chain with I373C
modifications: Synthetic CyPPO13

Tests used:
[1] = tested on: PPO-deficient BT3 E. coli (ΔPPO); assay: Tiafenacil tolerance of BT3 E. coli transformed with CyPPO10, CyPPO13 or AtPPO1 genes (pACBB vector); type: cell-based; conditions: tiafenacil 0 μM; PPO function complementation
Procedure: After transforming PPO-deficient BT3 E. coli (ΔPPO) with CyPPO10 or CyPPO13, the transformed BT3 (ΔPPO) was cultured on LB agar plates containing PPO-inhibiting herbicide to examine the growth level of the transformed BT3 (ΔPPO). BT3 (ΔPPO) strain was obtained from Hokkaido University (Japan). The BT3 (ΔPPO) strain is deficient in hemG-type PPO and has kanamycin tolerance (refer to “Watanabe et al., Dual targeting of spinach protoporphyrinogen oxidase II to mitochondria and chloroplasts by alternative use of two in-frame […], JBC 2001 276(23):20474-20481; Che et al., Molecular Characterization and Subcellular Localization of Protoporphyrinogen Oxidase in Spinach Chloroplasts, Plant Physiol. 2000 September; 124(1):59-70”).
The cloned plasmid was added to 100 μl of BT3 competent cell (Hokkaido University; Japan) respectively, thereby transforming by a heat shock method. The transformed E. coli with each PPO gene was cultured in LB (Luria-Bertani) agar media comprising Chloramphenicol (Duchefa).
For seed culture of E. coli transformed with respective genes, each single colony of E. coli transformant as provided above was cultured in 3 ml of LB broth containing chloramphenicol overnight (220 rpm, 37° C.), and 50 to 100 μl were subcultured in a new 3 ml of LB broth, and they were cultured until absorbance (OD600) became 0.5 to 1, and they were diluted with LB broth to absorbance (OD600) of 0.5. The diluted solution was serially diluted again 5 times by a factor of one tenth with LB broth. […] The LB Agar media were incubated at 37° C., under light condition, and level of inhibiting growth was observed after 16 to 20 hours of incubation.
Plant physiol. 2003 133:736-747).

CyPPO13 = assay: PPO enzyme activity and IC50 by herbicides, CyPPO13 wild type and variants (MBP-PPO fusion); type: biochemical, Synechococcus sp. JA-3-3Ab; conditions: PPO enzyme activity of CyPPO13 protein, wild type = 100
Procedure: The enzyme activities of PPO protein and PPO protein variants were examined, and inhibition assay by PPO-inhibiting herbicides was conducted. It was confirmed that the PPO protein has low water-solubility, but in case of being expressed as a fusion protein with MBP (maltose binding protein) (MBP-PPO), the PPO protein is able to be stably expressed as water-soluble form. Therefore, the wild type and variant proteins which were expressed in the form of fusion protein with MBP were used in the present test (refer to FIG. 4).
In order to express wild type genes and mutant genes of CyPPO10 and CyPPO13 (refer to Example 1 and Example 4), those genes were introduced to pMAL-c2X vector (refer to FIG. 5) respectively, and then cloned to BL21 (DE3) E. coli (CodonPlus).
The enzyme activity of the purified wild type protein and variant proteins of CyPPO10 and CyPPO13 was measured by the following process.
At first, a substrate of PPO protein, Protoporphyrinogen IX was synthesized. This process was performed in the space where nitrogen gas is streamed. 6 mg of protoporphyrin IX was dissolved in 20% (v/v) EtOH 20 ml, and stirred under dark condition for 30 minutes. The obtained protoporphyrinogen IX solution was put into a 15 ml screw tube in an amount of 800 and flushed with nitrogen gas for 5 minutes. To this, 1 g of sodium amalgam was added and vigorous shaking was performed for 2 minutes. The lid was open to exhaust hydrogen gas in the tube. Thereafter, the lid was closed and incubated for 3 minutes. The […] was filtered using syringe and cellulose membrane filter. To 600 μl of the obtained […], 2M MOPS [3-(N-morpholino)propanesulfonic acid] was added in an amount of approximately 300 thereby adjusting pH to 8.0. To determine the enzyme activity of PPO protein, a reaction mixture was prepared with the following composition (based on 10 ml): 50 mM Tris-Cl (pH 8.0); 50 mM NaCl; 0.04% (v/v) Tween 20; 40 mM glucose (0.072 g); 5 units glucose oxidase (16.6 mg); and 10 units catalase (1 μl).
Two hundred microliters (200 μl) of reaction mixture containing a purified PPO protein were placed in 96 well plates, and preincubated for 30 min at room temperature to reduce the oxygen concentration by the reaction of glucose oxidase-catalase. The mineral oil was layered and then the reaction was initiated by adding the substrate, […], to a final concentration of 50 μM. The reaction proceeded at room temperature for 30 min and the fluorescence of protoporphyrin IX was measured using Microplate reader (Sense, Hidex) (excitation: 405 nm; emission: 633 nm). To calculate the PPO enzyme activity, protoporphyrinogen IX solution was kept open in the air to oxidize the solution (overnight). To this, 2.7N HCl was added, and the absorbance at 408 nm was measured. A standard curve was generated using standard protoporphyrin IX, and the PPO activity was measured by calibration of protoporphyrin IX using the standard curve of protoporphyrin IX.
The final concentration of each herbicide was as follows: […]

A. thaliana = assay: Seed germination of A. thaliana transformants on ½ MS media containing herbicides; type: in vivo, Arabidopsis thaliana; conditions: T3 lines; 25 μM glufosinate, 25 μM glufosinate+70 nM tiafenacil, or 25 μM glufosinate+30 nM tiafenacil+40 nM saflufenacil; 7 days after sowing
Text: T3 generation seeds of each transformant were sown in ½ MS media containing herbicides. Col-0 ecotype (wild type Arabidopsis) seeds were used as a control. The kinds of herbicides and concentration are as follows:
In FIGS. 31a to 31c, 10-3 refers to CyPPO10 wild type, 10FM-4-7 to the CyPPO10 F360M transgenic line, 10FL-1-9 to the CyPPO10 F360L transgenic line, 10FC-3-5 to the CyPPO10 F360C transgenic line, 10AC-5-4 to the CyPPO10 A167C transgenic line, 13-1 to CyPPO13 wild type, 13FM-3-1 to the CyPPO13 F373M transgenic line, 13FC-1-1 to the CyPPO13 F373C transgenic line, 13FI-2-1 to the CyPPO13 F373I transgenic line, 13AC-1-3 to the CyPPO13 A177C transgenic line, CyPPO13_ALFL to the CyPPO13 A177L+F373L transgenic line, and CyPPO13_ALFI to the CyPPO13 A177L+F373I transgenic line, respectively.

CyPPO10 = assay: PPO enzyme activity and IC50 by herbicides, CyPPO10 wild type and variants (MBP-PPO fusion); type: biochemical, Thermosynechococcus elongatus BP-1; conditions: PPO enzyme activity of CyPPO10 protein, wild type = 100
Outline: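 Activity was read as protoporphyrin IX fluorescence (405/633 nm), calibrated with a protoporphyrin IX standard curve, after 30 min at room temperature with 50 μM substrate under mineral oil. The buffer was 50 mM Tris-Cl pH 8.0 with glucose oxidase/catalase and a 30 min preincubation. Enzymes were purified MBP-PPO fusions of CyPPO10 or CyPPO13, wild type and variants, expressed in E. coli.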

Molecule | Growth of BT3 transformant on medium containing no herbicide [1] | Activity (%) (CyPPO13) | Seed germination in media containing herbicides (A. thaliana) | Activity (%) (CyPPO10)
B1 | recovered |  |  | 
B2 | recovered |  |  | 
B3 |  | 83% | germinated | 
B4 |  | 98% | germinated | 
B5 |  | 68% | germinated | 
B6 |  | 66% | germinated | 
B7 |  |  | germinated | 59%
B8 |  |  | germinated | 98%
B9 |  | 98% | germinated | 
B10 |  | 86% | germinated | 
